Experiments:
MCF-7 cells = test: Tubulin staining (microtubule integrity); assay type: cell-based, human; details: 48 h treatment
Experimental: FIGS. 4A-4E. In vitro 1A3-MMAE cytotoxicity in MCF-7 (FIG. 4A) and MCF-7F (FIG. 4B) cells measured by MTT assay after treatment with 1A3-MMAE, 1A3 or MMAE. FIG. 4C: Clonogenic growth of MCF-7 or MCF-7F cells after exposure to 1A3-MMAE and replating. FIG. 4D: The quantification of clonogenic growth assays in FIG. 4C. (FIG. 4E). Tubulin staining of MCF-7 cells after 48 h treatment with MMAE, 1A3, 1A3-MMAE (40× magnification).

[1] = target: T1, FL AREG (peptide representing uncleaved AREG) (Homo sapiens, UniProt P15514); test: Immunoblot of TRF-conjugated AREG peptides, intact cleavage site; assay type: binding; details: 1 μg/mL antibody, 200 ng TRF-conjugated peptide
T1 construct: a peptide spanning this region (SMKTHSMIDSSLSKIAC); host or cells: synthetic peptide conjugated to transferrin
Experimental: Monomethyl auristatin E (MMAE) conjugated 1A3 antibody (1A3-VC-PAB-MMAE) was prepared using a kit (CM11409) from CellMosaic Inc. (Woburn, MA, USA) following the manufacturer's instructions. Maleimide-activated valine-citrulline p-aminobenzylcarbamate (VCPAB) MMAE was coupled directly to the antibody after reduction through alkylation.^13 The specificity of 1A3 and 1A3-VC-PAB-MMAE to peptides representing human cleaved-AREG was confirmed by immunoblotting. Briefly, transferrin (TRF) conjugated peptides representing cleaved and uncleaved AREG (200 ng) were electrophoresed on SDS-PAGE gels, transferred to PVDF membrane and probed with 1 μg/mL of 1A3 and 1A3-VC-PAB-MMAE. Horseradish peroxidase-conjugated goat anti-rabbit IgG was used. Antibody binding was detected with enhanced chemiluminescence (ECL; Amersham, Arlington Heights, IL, USA). Furthermore, the characterization and purity of 1A3-VC-PAB-MMAE were analyzed using hydrophobic interaction chromatography (HIC) and size-exclusion chromatography (Cell Mosaic).

MCF7 cells = test: Internalization and intracellular localization of 1A3-pHrodo, live-cell imaging; assay type: cell-based, human; details: time course to 2.5 h
Experimental: In order to study internalization, 1A3 was conjugated with pHrodo iFL Red dye using pHrodo iFL Red Microscale Protein Labeling Kit (P36014, Thermo Fisher Scientific). MCF7 cells were seeded in 12 mm Nunc Glass Bottom Dish, at a density of 1 ×10^5 cells/dish. After allowing the cells to attach overnight, the cells were incubated for 60 min with […] Hoechst dye for nuclei staining and LysoTracker® Green DND-26 (Thermo Fisher Scientific) for lysosomal labeling. The cells were then incubated with 1A3-pHrodo (2 μg/mL) for 20 min at 37° C. After washing the wells with PBS, the cells were supplemented with 1× live-cell imaging solution (Molecular probes, Thermo Fisher Scientific). Fluorescence images were acquired at 30 min intervals for 2.5 h with the Olympus 1×71 inverted fluorescence microscope (Olympus, Shinjuku, Tokyo, Japan). TAPI-2 (20 μM)—pre-treatment was performed overnight, with DMSO serving as a control.

MCF7 xenografts = test: Orthotopic MCF7 breast cancer xenograft in NSG mice; assay type: in vivo, mouse
From the text: In Vivo Antitumor Activity Studies: The animal experiments were approved by the Institutional Animal Care and Use Committee of University of Wisconsin La Crosse (La Crosse, Wisconsin, USA). Four-week-old female NOD.Cg-Prkdc^scid II2rg^tm1Wjl/SzJ mice (NSG; The Jackson Laboratory) were acclimated for 1 week before the experiments. For MCF7 breast cancer xenograft model, the mice were implanted subcutaneously with 0.72-mg 17β-estradiol 90-day release tablets (Innovative Research of America) 3 days prior to cell injection. […] Firefly luciferase expressing MCF7 and MCF7-F cells (2×10^6 cells in a 1:1 mixture of serum-free DMEM and Matrigel) were injected orthotopically into the fourth inguinal mammary fat pad of each mouse. Once the tumors were well established, each cell line cohort was divided into three groups (n=5). Mean tumor volume at the start of treatment was 111 mm^3 for the MCF7 cohorts and 119 mm^3 for the MCF7-F cohorts. The mice were treated by intraperitoneal injection every 4 days for a total of six doses with unconjugated or MMAE conjugated anti-cleaved-AREG 1A3 antibody (5 mg/kg), or vehicle control (PBS). Tumor volumes were calculated from caliper data by using the formula: Volume (mm^3)=(Length×Width^2)/2. Mice were imaged weekly with the in vivo FX PRO imaging system (Carestream Molecular Imaging, Woodbridge, CA, USA) after injecting luciferin (150 mg/kg body weight). Tumor volume and body weight were monitored once a week. Statistical Analysis:
To test in vivo efficacy of 1A3-MMAE, human breast cancer cell lines expressing luciferase were injected orthotopically into NSG mice (one tumor in each inguinal mammary gland). Once the average tumor size reached approximately 100-125 mm^3, mice were randomized to one of three treatment groups: PBS, 1A3 (5 mg/kg) or 1A3-MMAE (5 mg/kg). Mice received intraperitoneal injections every 4 days for six total injections and were monitored for tumor progression or regression. Similar experiments were performed with MCF7 (FIGS. 5A, 5B, and 5C, left panels) and MCF7-F (FIGS. 5A, 5B, and 5C, right panels) xenografts.

reaction with peptide representing uncleaved AREG by immunoblot [1]: did not react
B1: 1A3: Rabbit monoclonal IgG specific to cleaved AREG; VH SEQ ID NO: 3, VL SEQ ID NO: 4 (antibody, V domains shown)
VH: QSVKESEGRLVTPGTPLRLTCTVAGYSLSRYHMCWVRQAPGKGLEWIGMIGGSGRTDYASWAKGRFTISKTSTTVDLKITSPTTEDTATYFCSTVYTDSDGDFWGPGTLVTVSS
VL: AELDMTQTPSSKSVPVGGTVTINCQASESVYSNDRLAWFQQKPGQPPKLLIYYASTLASGVPSRFKGSGSGTQFTLTISDLECADAATYYCQSCYDMSSYGVAFGGGTELEIL
modifications: 1A3 antibody, Heavy chain; 1A3 antibody, Light chain
tubulin disruption (microtubule integrity) (MCF-7 cells): did not
trafficking after internalization (colocalization of pHrodo and Lysotracker signals) (MCF7 cells): trafficked to the lysosome after internalization
longitudinal luciferase imaging of xenografts (MCF7 xenografts; MCF7, 5 mg/kg): exhibited tumor growth
tumor volume response by caliper measurements (MCF7 xenografts; MCF7, 5 mg/kg i.p. every 4 days, six doses): continued, sometimes rapid increases in tumor volume
